The values below come from a protein production outcome set (Wang et al. 2014).

The nature of this data set: label from the status in PepcDB records.
On to “MLNGDVTLRAWTNIWMFLIYGLAIFLEPIHNNIRHLPILVRGGIYSTLIIISEYITGSFLCFMLGTCPWHYSSGPFTIQGITRLDYFPYWLIAGLLFEKLHDALLKISINVEQSSS”, for which the protein production result is “failed”. Turning to “MLNKFKKIVGVSVLVGCLGVLQAKNSLFVLPYEQKDALNSLVSGISNARESVKIAIYSFTHRDIARAIKSVASRGIKVQIIYDYESNHHNKQSTIGYLDKYPNTKVCLLKGLKAKNGNYYGIMHQKVAIIDDKIVFLGSANWSKNAFENNYEVLLKTDDTETILKAKSYYQKMLGSCVGF”, the protein production entry is reported as “failed”. Turning to “MLNLFILLLERVGLIILIAYILMNINHFKTMMNEREKRRSQWQLIIIFGCFSMISNFTGIQIRGDEIINGTVYNHLDPDASLANTRVLTIGVSGLIGGPFVALAVAVISGMYRVYIGGADAYIYLISSIFIALISGYFGYKAMRANRYPTIVKGACIGGTTEIIQMLCILLFSDNTEHAWTLVKLIAIPMISINSIGTAIFLSIILSTIKQEEETRAIQTHDVLQLANQTLPYFRSGLNEQSAKKAAEIILNLMRVSAVAITNRKDILTHVGVASDHHVAQKAIITNLSKRAIQSGTLKEAYSSEEIGCNHPGCPLEAAIVVPLRVKNDVVGTLKLYFTNKYDVNYSDKQLATGLAEIFSSQLELGQAETQSALIRDAEIKSLQAQVNPHFFFNAINTISALIRIDSEKARELLLQLSQFFRSNLQGARNNTISLEKELQQVESYLSLEQARYPDRFNVSFDIDRTCYGALVPPFAIQILVENAIKHAFKNRKYNNEIIVKAHKAQTGLVISVSDNGHGIPYEKLDKIGKTSVHSESGTGSALENLNRRLDGLFGYEASLQIHSDHQGTQVSCTIPYHNLEEEKIESNHCR”, the protein production result was “failed”. For “MLPASNGSVSLPQPKEWENGCRLGFIHMAAKGIVQVISAQVLSGTTLTLGWLGYVPLLIWAVSRVRWVELFTDRRRQHLLFGTVFCLFALWLVRRDFDTGVSYHFIGMTAVTLLLDWPLAVLGGFMAQLGLLALGRQDLAALGVNGLMLIGLPVLITEVCAIVVERAQPRNLFVYIFCSGFFPAALTVLVCVPAALGVLWLDGRFALPEWLSDFVGYLWLMMFPEAFINGMVISALVVFCPEWLETFNRTRYLQAPWKEDER”, the protein production result is “failed”. Take “MLPAYIRIHDQIKKEIDEGLWKIGDRLPSERDLAERFEVSRMTLRQAITLLVEEGILERRVGSGTYIASSRVQEKMRGTTSFTEIVKSQGKTPSTKLISYRRVHPSEQEIKFLDIKPKSYIIRMERVRYADDIPVVFEVTAIPEKIIKSFKKEAITKHFFKTLTDHGFVIGKSQQTISASNANEMTADYLAISRGHAVLTLAQVSYFENGMPFEYVRSQYVGERFEFYLENK”: the protein production entry is reported as “not failed”. As to “MLPLEPYLTQTSAVPQMSHFMCHSPTHKPQGLLPWAPFHQASVSLYPISPWPSESVCPPTCPGGASCWFPAGNAWDRVELGFLGFGAGGVSIAVPGFPLSCGQGCCAGGWLGHGARFPAKLRAFPQVIRRGWLTINNISLMKGGSKEYWFVLTAESLSWYKDEEEKEKKYMLPLDNLKIRDVEKGFMSNKHVFAIFNTEQRNVYKDLRQIELACDSQEDVDSWKASFLRAGVYPEKDQAENEDGAQENTFSMDPQLERQVETIRNLVDSYVAIINKSIRDLMPKTIMHLMINNTKAFIHHELLAYLYSSADQSSLMEESADQAQRRDDMLRMYHALKEALNIIGDISTSTVSTPVPPPVDDTWLQSASSHSPTPQRRPVSSIHPPGRPPAVRGPTPGPPLIPVPVGAAASFSAPPIPSRPGPQSVFANSDLFPAPPQIPSRPVRIPPGIPPGVPRRPPAAPSRPTIIRPAEPSLLD”, the protein production result is “not failed”.

Regarding “MLQQLFASPILSVQTLHPSYEDHASDVFLVQTKDEEVIVRSSKMTEEPNNDFWWGCKNLFGIDPRNVHHLEYIHELLKKHTNLPIPTILQKHVLNGRKYVSVEKLTGSTLQSFVGQSDSILFSLGKGLAEIHSFQAEFIGNPSGTFQVPLEEFKSHILKVSKELVNRFYSDNTSIRNAFSTFESQLSSLPTPKEATLVLIDMDPTQFLSDGTTITGLVDTEAYAVAPRELDFISLEYVFTEKEAHAFKQGYETIMPIPNLVECRHPYRYLYRLLSIQGSVELEKWLSHPSYF”, the protein production entry is given as “failed”.

In the case of “MLQRTLSSIQIIGGVTQALFILSICLASINPPTEFTMRRTMAMSMRKYSSHSTPRMARIPTTFVVIVLRPTILSGSVGPVITLYIAIKAVPRSTQTPATKTFS”, the protein production result is “failed”. “MLQSHIMAGNCTVKPARMTRAPYARHELKSTNSGCDESPAALERRVAELLLVADFGAVVGSILDPRQVCEVASSWLGETLGWQMLSVCCHDFSTGTMRGGAGRGRHLSKKRQEGATSTVFIAAAQKGLSDAADVRTIPFPDGSGTLSLSRQSLAESQYSDEFFGGVVENLARSLAAARECDRLKNLSMRDHLTGLYNRRVFEAMLEVEARKRTTKPFSLLLIDLDDFKRVNDTYGHGAGDQVLVAVAKMLRLSFRKSDVVSRYGGEEFGVLLPDTSQDSARVVAERFRQNVATLSLPVNKEKIMPTVSVGIASVTLRLGIEVADVIEEADRALYQAKVTGKNRVCSSLLGENS”: the protein production result was “failed”. Consider “MLQYILAEHPFFVATGALYAAAAGFYAAAWRSTRALVGRAATALLCAALAFNAGLIVERWIEAGRAPFKSLFESLVFFAFTTGVVYLAFERLYRTRVFGALAALLTLALLGYALGKWDAEIVKLPPALQSAWFVPHVVVYFVGYAAVSLAALLAAVQLLAPRVPLLQRLTTLRAGTILTGKALDLEQMTYELIRFGFVLLTVGLLVGSVWAKSAWGDFWVWDPKENWSLVTWLVYGAYLHLRKVRGWRGDRAAWLVLLGFAVVMFTYLGMSMLPTAEESAHVYTG”, for which the protein production result is “failed”. On to “MLRAIYRALWWLVAPLAVLRLVWRSRKERGYREHIGERFGFGPGRALARRIDEATPVVWVHAVSVGETRAAQPLVDALLRARPDVHVLLTHMTPSGRATGEQIFGERVSRCYLPYDLPHAVRRFLRAWRPSLGLVMETEVWPTLIDECRRADVPLVLTNARMSARSFGRAAKFGAAAREVFGGFSRVLAQSPADAERLTALGARNVAVLGNLKFDMTTPPELAARGRAWRAAIGERPVWVAASTRDGEEALVLDAFAALRTPDALLILVPRHPQRFAEVAALVERRGLRHARRTEWAADAAAAAAGGPAAPALPPDVAVLLGDSMGELGAYYAAADVAFIGGSLLPLGGQNLIEACAVGVPVLIGPHVFNFTQATADAVTAGACAQVQDPADLARTLDALFADHARRAAMGAAGAAFAARHRGATARTVDVLNALLPPPRVASSANDEGEAGGLDAGTAID”, for which the protein production entry is listed as “failed”.

“MLREAEVVVLGAGVAGLTLARLLWERGRKVLVVAEALGEASRPPVALVNPLRGRRFTLAEEGERALAAALAFYGRFVPLHLGVFRPVPEEDRPKVAGRLSRLKHRWEKEGVLLEEAFWLEPRPLLARLAEGLPLLRGRVLAWEPPWLVLEGGGRVRGEVLVYAGGGRGAHLLGLEGRHVPGLVLTLLDYFPRAVSYRVYLAGAALGGSYLPGEEGYRLPPPTEGEVEWLLQGAEALVGYRPRVASLWRGVRFRLSSFLFPVEGGFALTGFGSTGFLYAPLLAERLAERLLEHHHHHH”: the protein production entry was “failed”. For the sequence “MLRGCGKLKKNLPCSVHTETPIVLKTTARFLLGLSLVLLSSSVATAQVVLPRTLELNAKEMEQNGFVVAQEALQLAQFQQFEDALVRAKLAVQLAPRAHEIWALLGGLYLTVNQPKDAVPALEQSLKLNDKNPGAYFNLGSAHFRLGRYDAAARAIEQGLALKPNATEEWFNLGNAYLKLGQKDRAIEQYRRSLRLDRRFWPAYTNIGLVLYEQGHIRQAVKNWEQAADIDPKASEPKLALATALLQLGNEARALQLAEEALRLDSRYGTVEFQRENLWGDRLVADTQILLAKPPLRALMSQLQPEQSALPQP”, the protein production result is listed as “failed”.

With “MLRIFIPTSNGKISRRRYIFSFILINFIFAFLIIFFNDGEAGFLVIVSTIVLHYLVINMNCQRLRDSGFIYIKTYVFGTLAVYIISIITMIAEDFACSGNGSMIFLICYFSTFSMLMLAPTDSSKQ”, the protein production result was “failed”.
